This is an account of results in patent US20130078251A1 (Hoffmann-La Roche, published 2013).

Assay [1] concerns the target T1, recombinant D3 domain of MCSP (UniProt Q6UVK1 1582-2224, limits assumed).
T1 construct: domain: D3 domain; also called MCSP D3
T1 sequence (looked up): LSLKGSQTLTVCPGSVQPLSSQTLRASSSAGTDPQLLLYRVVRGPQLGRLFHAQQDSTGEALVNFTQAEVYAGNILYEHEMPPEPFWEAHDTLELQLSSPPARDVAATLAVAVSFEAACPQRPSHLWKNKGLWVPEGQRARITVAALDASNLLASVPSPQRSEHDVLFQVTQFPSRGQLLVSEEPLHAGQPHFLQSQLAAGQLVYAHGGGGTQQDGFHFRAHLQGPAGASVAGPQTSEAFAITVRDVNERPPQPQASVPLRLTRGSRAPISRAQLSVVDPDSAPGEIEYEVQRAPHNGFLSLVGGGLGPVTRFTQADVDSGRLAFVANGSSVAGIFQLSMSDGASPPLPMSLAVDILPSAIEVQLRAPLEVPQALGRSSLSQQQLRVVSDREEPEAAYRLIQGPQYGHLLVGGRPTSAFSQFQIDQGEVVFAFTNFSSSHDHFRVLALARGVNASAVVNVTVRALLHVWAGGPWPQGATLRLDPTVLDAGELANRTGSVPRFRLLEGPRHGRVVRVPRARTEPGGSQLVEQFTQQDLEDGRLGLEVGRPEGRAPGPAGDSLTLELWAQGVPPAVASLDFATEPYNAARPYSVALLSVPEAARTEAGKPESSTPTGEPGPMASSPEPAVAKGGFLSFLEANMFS
Kind of assay: Biacore T100, antibody amine-coupled on CM5 chip, MCSP D3 as analyte, 1:1 model, 25 °C. How it is done:
(§1) The monovalent binding affinities for the chimeric LC007 and the humanized variant M4-3 ML2 were determined using a Biacore assay. Briefly, the antibodies were chemically immobilized on a CM5 chip (Biacore) via amine-coupling (activation with EDC-NHS, coupling of 5000 RU for each antibody, deactivation with ethanolamine). The recombinant D3 domain of MCSP was used as analyte. The experiment was performed at 25° and 37° in HBS-EP+ running buffer on a Biacore T100. […] The surface was regenerated between injections with 10 mM glycine pH 2 for 30 s. The sensorgrams were fitted with the 1:1 binding model (with RI=0 and Rmax=local) to determine the Kd.
(In SPR one partner is held on a chip, and binding of the other changes the refractive index at the surface.)

In assay [2] the target is T1, recombinant D3 domain of MCSP. The assay is described as follows: Biacore T100, antibody amine-coupled on CM5 chip, MCSP D3 as analyte, 1:1 model, 37 °C. How it is done:
as §1

Assay [3] concerns the target T2, human MCSP (melanoma chondroitin sulfate proteoglycan) on melanoma cells (human, UniProt Q6UVK1 30-2322).
T2 construct: Endogenous MCSP of human melanoma cell lines; also called surface MCSP; native form of MCSP
Kind of assay: FACS titration on A2058 melanoma cells, FITC anti-human IgG Fc secondary antibody. How it is done: (§2) Binding activity was determined by the following method. Target cells were detached from culture flask with cell dissociation buffer, counted and checked for viability. Cells were resuspended and adjusted to 1.111×10⁶ (viable) cells/ml in PBS-0.1% BSA. 180 μl of this suspension were transferred to each well (200,000 cells/well) in a round bottom 96-well-plate, centrifuged for 4 min, at 400 g, and resuspended. 20 μl of antibody dilutions in PBS-0.1% BSA (from 10 μg/ml to 0.002 μg/ml) were added to each well. The samples were centrifuged for 4 min, at 400 g, and resuspended. Secondary antibody, FITC-conjugated AffiniPure F(ab′)2 fragment goat anti-human IgG Fcg Fragment Specific (Jackson Immuno Research Lab #109-096-098)), was added and the sample centrifuged for 4 min, at 400 g, and resuspended. Fluorescence was measured in flow cytometer (e.g. FACS Canto II). Antibody 9.2.27, described in Morgan A C Jr, Galloway D R, Reisfeld R A. Hybridoma. 1981; 1(1):27-36.; GenBank Accession Numbers: GI:20797193 and GI:20797189 for light and heavy chain respectively, was used as a reference (FIG. 2). Human melanoma cell-lines Colo38, A2058, and A375 were used. Giacomini et al. 1985 (for Colo38). Marquardt H, Todaro G J. J Biol Chem. 1982 May 10; 257(9):5220-5 (for A2058). Geiser M, Schultz D, Le Cardinal A, Voshol H, García-Echeverría C. Cancer Res. 1999 Feb. 15; 59(4):905-10 (for A375).

Assay [4] has as its target T2, human MCSP (melanoma chondroitin …). The assay is described as follows: FACS titration on A375 melanoma cells, FITC anti-human IgG Fc secondary antibody. How it is done:
as §2

For assay [5], the target named is T3, human MCSP D3 domain expression construct (human, UniProt Q6UVK1 1582-2224, limits assumed).
T3 construct: Built like the cynomolgus construct (signal peptide, N-terminal FLAG-tag); also called corresponding human expression construct; human counterpart
T3 sequence: T1 sequence (looked up) with R122H
Kind of assay: flow cytometry titration on HEK-EBNA cells electroporated with the FLAG-tagged D3 domain construct. From the text:
(§3) An expression construct was generated that included the C-terminal part of the cynomolgus MCSP protein, a signal peptide for secretion and a N-terminal FLAG-tag (SEQ ID NO: 8) to test for crossreactivity towards the cynomolgus antigen. This domain was referred to as the D3 domain Tillet, F. et. Al, J. Biol. Chem. 272: 10769-10776 (1997). A similar construct was done for the human counterpart (SEQ ID NO: 9). An expression plasmid encoding for these two construct was electroporated into HEK-EBNA cells, and expression was confirmed with an anti-FLAG antibody. Binding of LC007 antibody was then tested by flow cytometry.
(In flow cytometry, cells or beads pass a laser one at a time.)

The target of assay [6] is T4, cynomolgus MCSP D3 domain expression construct (cynomolgus, UniProt Q6UVK1 1582-2224 (human entry), limits assumed).
T4 construct: also called cynomolgus construct; cynomolgus antigen
T4 chain: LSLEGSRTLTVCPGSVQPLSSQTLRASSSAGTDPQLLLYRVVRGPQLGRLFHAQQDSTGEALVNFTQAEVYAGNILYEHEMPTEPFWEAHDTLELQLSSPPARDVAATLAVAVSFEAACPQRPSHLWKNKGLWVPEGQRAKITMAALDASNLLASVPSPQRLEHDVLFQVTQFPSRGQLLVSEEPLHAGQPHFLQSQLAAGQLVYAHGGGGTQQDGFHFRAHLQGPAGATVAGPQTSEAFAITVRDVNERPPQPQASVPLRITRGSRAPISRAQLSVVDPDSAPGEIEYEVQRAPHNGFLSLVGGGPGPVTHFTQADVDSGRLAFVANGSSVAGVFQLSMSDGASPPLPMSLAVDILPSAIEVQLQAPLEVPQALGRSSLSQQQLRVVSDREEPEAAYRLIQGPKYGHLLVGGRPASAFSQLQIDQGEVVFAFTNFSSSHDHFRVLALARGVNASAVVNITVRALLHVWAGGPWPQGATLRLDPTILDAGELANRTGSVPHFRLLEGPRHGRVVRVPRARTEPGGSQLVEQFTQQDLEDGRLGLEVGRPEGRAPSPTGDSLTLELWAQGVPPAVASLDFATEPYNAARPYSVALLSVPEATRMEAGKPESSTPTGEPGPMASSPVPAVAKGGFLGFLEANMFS
The description is as above.
Source text: as §3

The target in assay [7] is T2, human MCSP (melanoma chondroitin …). The assay is described as follows: FACS titration on Colo38 melanoma cells, FITC anti-human IgG Fc secondary antibody. The method, then:
as §2

The target of assay [8] is T5, Construct 4, CSPG repeat 12-15 of human MCSP with the original transmembrane region (human, UniProt Q6UVK1 1702-2246).
T5 construct: Expressed on HEK-EBNA cells
T5 sequence: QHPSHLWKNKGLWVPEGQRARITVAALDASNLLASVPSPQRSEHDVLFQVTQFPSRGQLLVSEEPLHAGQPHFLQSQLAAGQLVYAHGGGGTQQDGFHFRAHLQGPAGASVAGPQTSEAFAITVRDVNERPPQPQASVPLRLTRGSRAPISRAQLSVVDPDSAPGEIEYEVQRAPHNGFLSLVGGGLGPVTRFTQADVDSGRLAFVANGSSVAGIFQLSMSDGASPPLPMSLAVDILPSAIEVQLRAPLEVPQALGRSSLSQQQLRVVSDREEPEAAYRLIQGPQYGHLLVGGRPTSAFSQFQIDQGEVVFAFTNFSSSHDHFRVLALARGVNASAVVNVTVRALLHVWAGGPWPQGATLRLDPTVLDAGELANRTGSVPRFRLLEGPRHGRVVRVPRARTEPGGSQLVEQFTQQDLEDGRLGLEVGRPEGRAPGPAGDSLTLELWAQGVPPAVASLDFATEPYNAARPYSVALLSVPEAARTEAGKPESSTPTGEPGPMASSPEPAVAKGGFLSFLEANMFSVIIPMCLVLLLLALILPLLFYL
The assay is described as follows: FACS titration on HEK-EBNA cells transfected with the construct.

The target of assay [9] is T6, Construct 1, CSPG repeat 15 of human MCSP with the original transmembrane region (human, UniProt Q6UVK1 2044-2246).
T6 construct: Expressed on HEK-EBNA cells; also called construct including only the MCSP repeat 15 and the natural transmembrane domain
T6 sequence: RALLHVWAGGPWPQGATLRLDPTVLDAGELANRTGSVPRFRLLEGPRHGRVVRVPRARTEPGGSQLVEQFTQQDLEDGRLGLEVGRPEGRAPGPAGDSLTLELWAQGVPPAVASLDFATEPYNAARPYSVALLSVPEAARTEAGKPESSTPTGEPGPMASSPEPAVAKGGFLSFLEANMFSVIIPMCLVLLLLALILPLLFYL
The description is as above.

Changes are numbered by the printed parent chain.

T2 sequence (Q6UVK1 30-2322 limits assumed): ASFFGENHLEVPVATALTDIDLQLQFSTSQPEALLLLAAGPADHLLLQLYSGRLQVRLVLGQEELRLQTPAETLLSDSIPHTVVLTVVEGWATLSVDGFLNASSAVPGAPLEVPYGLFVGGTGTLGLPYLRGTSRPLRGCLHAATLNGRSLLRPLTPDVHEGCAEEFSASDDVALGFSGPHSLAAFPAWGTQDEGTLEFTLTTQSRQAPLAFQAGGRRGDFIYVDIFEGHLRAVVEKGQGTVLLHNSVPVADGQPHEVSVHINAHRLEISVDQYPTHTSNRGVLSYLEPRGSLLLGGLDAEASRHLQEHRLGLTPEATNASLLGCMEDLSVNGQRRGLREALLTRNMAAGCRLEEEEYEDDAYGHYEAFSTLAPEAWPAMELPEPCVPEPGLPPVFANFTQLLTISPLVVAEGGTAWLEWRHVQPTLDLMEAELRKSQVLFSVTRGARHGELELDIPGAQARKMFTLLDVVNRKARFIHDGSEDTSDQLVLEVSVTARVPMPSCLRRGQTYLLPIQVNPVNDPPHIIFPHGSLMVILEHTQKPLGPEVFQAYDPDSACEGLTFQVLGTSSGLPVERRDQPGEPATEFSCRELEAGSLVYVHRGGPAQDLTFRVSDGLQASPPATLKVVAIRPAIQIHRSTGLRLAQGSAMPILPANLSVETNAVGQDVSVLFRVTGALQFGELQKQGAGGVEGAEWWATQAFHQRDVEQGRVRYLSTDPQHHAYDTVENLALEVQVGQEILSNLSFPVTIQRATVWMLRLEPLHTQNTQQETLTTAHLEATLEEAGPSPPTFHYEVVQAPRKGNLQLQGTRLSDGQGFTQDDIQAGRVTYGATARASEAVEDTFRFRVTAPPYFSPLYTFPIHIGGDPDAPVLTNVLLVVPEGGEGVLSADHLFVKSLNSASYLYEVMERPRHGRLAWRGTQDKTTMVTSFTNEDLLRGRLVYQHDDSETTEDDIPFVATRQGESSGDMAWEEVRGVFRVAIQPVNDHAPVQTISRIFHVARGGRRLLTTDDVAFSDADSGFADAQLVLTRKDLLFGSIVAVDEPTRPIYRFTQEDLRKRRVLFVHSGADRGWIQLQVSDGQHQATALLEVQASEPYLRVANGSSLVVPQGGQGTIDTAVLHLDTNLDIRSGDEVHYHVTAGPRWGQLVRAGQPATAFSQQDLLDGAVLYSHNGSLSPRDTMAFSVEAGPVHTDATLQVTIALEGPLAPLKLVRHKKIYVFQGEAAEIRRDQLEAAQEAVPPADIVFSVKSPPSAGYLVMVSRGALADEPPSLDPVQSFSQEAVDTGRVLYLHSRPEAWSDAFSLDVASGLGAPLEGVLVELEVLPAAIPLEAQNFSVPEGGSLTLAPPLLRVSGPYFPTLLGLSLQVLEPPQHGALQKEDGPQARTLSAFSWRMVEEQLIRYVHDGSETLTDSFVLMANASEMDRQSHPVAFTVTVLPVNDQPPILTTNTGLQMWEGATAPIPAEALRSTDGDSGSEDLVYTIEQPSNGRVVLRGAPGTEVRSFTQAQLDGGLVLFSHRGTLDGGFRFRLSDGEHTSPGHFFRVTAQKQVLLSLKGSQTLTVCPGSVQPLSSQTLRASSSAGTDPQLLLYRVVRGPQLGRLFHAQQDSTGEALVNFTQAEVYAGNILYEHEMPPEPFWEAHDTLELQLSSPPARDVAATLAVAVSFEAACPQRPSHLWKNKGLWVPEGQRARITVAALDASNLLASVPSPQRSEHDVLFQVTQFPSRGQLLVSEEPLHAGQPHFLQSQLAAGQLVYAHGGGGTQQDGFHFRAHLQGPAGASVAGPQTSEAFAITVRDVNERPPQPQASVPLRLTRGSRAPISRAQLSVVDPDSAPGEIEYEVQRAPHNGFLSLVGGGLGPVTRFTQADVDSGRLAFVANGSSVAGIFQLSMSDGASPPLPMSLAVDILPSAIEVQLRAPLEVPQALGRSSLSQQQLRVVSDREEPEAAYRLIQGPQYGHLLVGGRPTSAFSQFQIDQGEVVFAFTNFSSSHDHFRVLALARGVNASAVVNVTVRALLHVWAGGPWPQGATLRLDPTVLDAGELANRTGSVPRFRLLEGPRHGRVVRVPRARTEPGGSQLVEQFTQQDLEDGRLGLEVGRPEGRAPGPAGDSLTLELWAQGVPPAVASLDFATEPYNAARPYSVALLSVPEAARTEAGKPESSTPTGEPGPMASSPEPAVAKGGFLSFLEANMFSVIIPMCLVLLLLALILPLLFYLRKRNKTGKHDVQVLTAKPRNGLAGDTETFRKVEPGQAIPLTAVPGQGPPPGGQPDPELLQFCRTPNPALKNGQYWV

B1: humanized variant M4-3 ML2 (antibody, human IgG1, kappa, V domains shown)
VH: QVQLQESGPGLVKPSQTLSLTCTVSGGSITSGYYWNWIRQHPGKGLEWIGYITYDGSNNYNPSLKSRVTISRDTSKNQFSLKLSSVTAADTAVYYCADFDYWGQGTLVTVSS
VL: DIQMTQSPSSLSASVGDRVTITCRASQGIRNYLNWYQQKPGKAPKLLIYYTSSLHSGVPSRFSGSGSGTDFTLTISSLQPEDFATYYCQQYSKLPWTFGQGTKVEIKR
notes: also called M4-3 ML2 antibody
As to B1, the Kd (usually the concentration at which binding is half-saturated) in [1] is 11.4 nM; in assay [2] it was 16.6 nM.

B2: chimeric antibody LC007 (antibody, human IgG1, kappa, V domains shown)
VH: EVQLQESGPGLVKPSQSLSLTCSVTGYSITSGYYWNWIRQFPGNKLEWMGYITYDGSNNYNPSLKNRISITRDTSKNQFFLKLNSVTTEDTATYYCADFDYWGQGTTLTVSS
VL: DIVLTQSPSSLSASLGDRVTISCSASQGIRNYLNWYQQRPDGTVKLLIYYTSSLHSGVPSRFSGSGSGTDYSLTISNLEPEDIATYYCQQYSKLPWTFGGGTKLEIKR
notes: also called LC007 antibody; chimeric LC007
In the case of B2, the results for the Kd in assay [1] and in [2] were 9.8 nM and 10.8 nM, respectively. Further, the EC50 (read off the curve) – broadly, the concentration needed to bring the measured effect to its halfway point – is approximately 0.03 µg/mL in [3]; approximately 0.05 µg/mL in assay [4]; approximately 0.08 µg/mL in assay [5]; approximately 0.1 µg/mL in [6]; approximately 0.05 µg/mL in assay [7]; approximately 0.3 µg/mL in assay [8]. Also, the binding result in [9] is “no binding (tested: 5 ug/ml)”.
